Residue numbers refer to the chain shown, from its start. Numbers in names are those of the source.

EC50, Kd and EC50 fold over wild-type rFluA-20 data for nine molecules are collected here from patent publication US20210252150A1.

For assay [1], the target named is T1, HA of A/California/04/2009 (H1N1) (influenza A virus (H1N1)), P26140. Kind of assay: ELISA, recombinant HA. The following applies: remark: other sources report otherwise.
For assay [2], the target named is T1, HA of A/California/04/2009 (H1N1) …. The assay is described as follows: ELISA. As to conditions: remark: other sources report otherwise. For orientation: In an ELISA, binding on a coated surface is turned into a signal by an enzyme label.
Assay [3] has the same target. Kind of assay: ELISA, recombinant HA. As to conditions: remark: other sources report otherwise. The source holds these as a separate data set.
Assay [4] shares this target. Kind of assay: BLI, Fab on immobilized biotinylated HA. As to conditions: remark: other sources report otherwise. A general note: Biolayer interferometry detects binding as a change in optical thickness at a sensor tip.
The target is the same in assay [5]. The assay is described as follows: BLI, 1:1 global fit; Table S2 of the text prints 48 for this strain. As to conditions: remark: other sources report otherwise.
Assay [6] addresses HA of A/Hong Kong/1073/99 (H9) (influenza A virus (H9)).
For assay [7], the target named is HA of A/Indonesia/5/2005 (H5N1) (influenza A virus (H5N1)).
Assay [8] addresses HA of A/mallard duck/Astrakhan/263/1982 (H14N5) (influenza A virus (H14N5)).
Assay [9] addresses HA of A/Netherlands/219/2003 (H7N7) (influenza A virus (H7N7)).
Assay [10] has as its target HA of A/shearwater/Western Australia/2576/1979 (H15N9) (influenza A virus (H15N9)).
In assay [11] the target is HA of A/Shanghai/2/2013 (H7N9) (influenza A virus (H7N9)).
Assay [12] addresses HA of A/Hong Kong/1/1968 (H3N2) (influenza A virus (H3N2)), Q91MA7. The following applies: remark: other sources report otherwise.

B1: FluA-20 (hybridoma-produced IgG) (antibody, V domains shown)
VH: QVQLQESGPGLVKPSETLSLTCSVSGVSVTSDIYYWTWIRQPPGKGLEWIGYIFYNGDTNYNPSLKSRVTMSIDTSKNEFSLRLTSVTAADTAVYFCARGTEDLGYCSSGSCPNHWGQGTLVTVSS
VL: DIQMTQSPSSLSASIGDRVTITCRPSQNIRSFLNWFQHKPGKAPKLLIYAASNLQSGVPSRFSGSGSGTEFTLTIRSLQPEDFATYYCQQSYNTPPTFGQGTKVEIK
The EC50 is the concentration needed to bring the measured effect to its halfway point. For the molecule B1, the EC50 in assay [1] was 0.01 mg/L; in assay [2], 0.008 mg/L.

B2: rFluA-20 (recombinant FluA-20 IgG) (antibody, V domains shown)
VH: B1 VH
VL: B1 VL
As to B2, the EC50 was 0.031 mg/L in assay [3] and 0.012 mg/L in [1].

B3: FluA-20 Fab (Fab, V domains shown)
VH: B1 VH
VL: B1 VL
As usually defined, the Kd is the equilibrium constant for the complex coming apart. Higher therefore signals lower affinity. Consider B3, for which the Kd was 0.048 µM in assay [4] and 0.046 µM in [5].

B4: rFluA-20 heavy chain mutant Y100aA (antibody, V domains shown)
VH: B1 VH with Y106A
VL: B1 VL
Consider B4, for which the EC50 fold over wild-type rFluA-20 in assay [6], in [7], in assay [8], in [9], in assay [10] and in [11] was above 100 fold in each case.

B5: rFluA-20 heavy chain mutant E97A (antibody, V domains shown)
VH: B1 VH with E102A
VL: B1 VL
As to B5, the EC50 in assay [6] was determined as 0.36 mg/L; in [8], 0.64 mg/L; in assay [9], 0.08 mg/L; in assay [10] it was 0.12 mg/L; in [11] it was 1 mg/L. Besides, the EC50 fold over wild-type rFluA-20 in assay [7] was above 100 fold.

B6: rFluA-20 heavy chain mutant D98A (antibody, V domains shown)
VH: B1 VH with D103A
VL: B1 VL
Molecule B6 returned an EC50 fold over wild-type rFluA-20 in [9] above 100 fold.

B7: rFluA-20 light chain mutant Q55A (antibody, V domains shown)
VH: B1 VH
VL: B1 VL with Q55A
The molecule B7 registered a concentration giving a half-maximal response (EC50) in [12] of 0.08 mg/L.

B8: rFluA-20 heavy chain mutant Y34A (antibody, V domains shown)
VH: B1 VH with Y34A
VL: B1 VL
Regarding B8, the EC50 came out at 0.21 mg/L in [6]; 0.54 mg/L in assay [8]; 0.07 mg/L in assay [9]; 0.1 mg/L in assay [10]; 0.44 mg/L in [11]. For the same molecule, the EC50 fold over wild-type rFluA-20 in assay [7] was above 100 fold.

B9: rFluA-20 heavy chain mutant T96A (antibody, V domains shown)
VH: B1 VH with T101A
VL: B1 VL
As to B9, the EC50 stood at 0.1 mg/L in [6]; 0.11 mg/L in [7]; 0.23 mg/L in assay [8]; 0.04 mg/L in assay [9]; 0.07 mg/L in assay [10]; 0.37 mg/L in assay [11].
